From paper doi:10.1101/521658 (bioRxiv, 2019)

Target: T1, 6HIS-Δ38NADKc-1, refolded (A. thaliana, UniProt Q0WUY1 39-534)
T1 sequence (looked up): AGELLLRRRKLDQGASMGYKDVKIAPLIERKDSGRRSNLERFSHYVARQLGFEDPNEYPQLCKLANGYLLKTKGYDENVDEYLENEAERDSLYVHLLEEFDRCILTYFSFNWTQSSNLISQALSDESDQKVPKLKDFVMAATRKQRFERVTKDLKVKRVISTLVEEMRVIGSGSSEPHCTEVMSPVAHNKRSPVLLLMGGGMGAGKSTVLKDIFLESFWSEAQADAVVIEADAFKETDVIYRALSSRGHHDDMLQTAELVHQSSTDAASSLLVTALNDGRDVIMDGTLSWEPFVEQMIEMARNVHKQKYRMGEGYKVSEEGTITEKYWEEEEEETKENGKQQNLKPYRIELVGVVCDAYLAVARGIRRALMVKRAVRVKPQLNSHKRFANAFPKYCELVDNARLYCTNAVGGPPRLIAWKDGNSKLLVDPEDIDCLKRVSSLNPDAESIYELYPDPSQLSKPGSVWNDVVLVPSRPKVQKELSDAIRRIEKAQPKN
Test: enzyme activity titration

Kd: 600 to 1000 pM
B1: A. thaliana (At) CaM1 (natural protein)
chain: not shown
